Measured values: patent US20040224363A1

Legend:
[1] = molecular target: putative IBC-1 receptor on G361 melanoma cells, moderately high affinity binding site; experiment: Scatchard analysis of AP-IBC-1 binding to G361 melanoma cells (bound AP activity)
[2] = molecular target: putative IBC-1 receptor on G361 melanoma cells, much lower affinity binding site; experiment: as above

- Kd [1]: 0.0375 µM
- binding sites/cell (binding sites/cell) [1]: 17000
- Kd [2]: 0.36 µM
- binding sites/cell (binding sites/cell) [2]: 350000
Substance: alkaline phosphatase-IBC-1 (AP-IBC-1) fusion protein (from UniProt P81605 20-110) (ligand)
